Patent publication US20250298032A1 (INSTITUTE FOR RESEARCH IN BIOMEDICINE, published 2025)
Where a chain is given by its changes, count along the chain named.

Columns and labels:
[1] = target: T1, CXCL13 N-loop peptide (human, biotin-Ahx at the N-terminus; amidated at the C-terminus); assay: ELISA, biotinylated CXCL13 N-loop peptide on neutravidin plate, anti-human IgG-HRP, OD450 nm
T1 construct: Synthetic peptide, captured on Neutravidin-coated ELISA plates
T1 peptide: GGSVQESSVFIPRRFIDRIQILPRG
Protocol: (§1) To evaluate the antibodies' binding to chemokine peptides, 96-well plates (ThermoFisher, 442404) were coated with 50 μl per well of a 2 μg/ml Neutravidin (Life Technologies, 31000) solution in PBS, overnight at room temperature. Plates were washed 4 times with washing buffer (PBS+0.05% Tween-20 [Sigma-Aldrich]) and incubated with 50 μl per well of a 50 nM biotinylated peptide solution in PBS for 1 h at room temperature. After washing 4 times with washing buffer, plates were incubated with 200 μl per well of blocking buffer (PBS+2% BSA+0.05% Tween-20) for 2 h at room temperature. Plates were then washed 4 times with washing buffer, and serial dilutions of monoclonal antibodies or plasma were added in PBS +0.05% Tween-20 and incubated for 1 h at room temperature. To screen for the presence of anti-chemokine IgGs, plasma samples were assayed (unless otherwise stated) at 1:50 starting dilution followed by 3 fourfold serial dilutions (1:200, 1:800, 1:3200). Monoclonal antibodies were tested at 5 μg/ml starting concentration followed by 11 threefold serial dilutions. Plates were subsequently washed 4 times with washing buffer and incubated with anti-human IgG secondary antibody conjugated to horseradish peroxidase (HRP) (GE Healthcare, NA933) at a 1:5000 dilution in PBS+0.05% Tween-20. Finally, after washing 4 times with washing buffer, plates were developed by the addition of 50 μl per well of the HRP substrate TMB (ThermoFisher, 34021) for 9 min. The developing reaction was stopped with 50 μl per well of a 1 M H₂SO₄ solution, and absorbance was measured at 450 nm with an ELISA microplate reader (BioTek) with Gen5 software. A positive control (broadly reactive plasma from donor CLM70) and a negative control (uninfected participant) samples were included in each experiment. The Area Under the Curve (AUC) was obtained from two independent experiments and plotted with GraphPad Prism.

[2] = target: T2, CXCL16 N-loop peptide (human, biotin-Ahx at the N-terminus; amidated at the C-terminus); assay: ELISA, biotinylated CXCL16 N-loop peptide on neutravidin plate, anti-human IgG-HRP, OD450 nm
T2 construct: Synthetic peptide, captured on Neutravidin-coated ELISA plates
T2 peptide: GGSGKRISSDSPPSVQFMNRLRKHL
Protocol: as §1

[3] = target: T3, CCL2 N-loop peptide (human, biotin-Ahx at the N-terminus; amidated at the C-terminus); assay: ELISA, biotinylated CCL2 N-loop peptide on neutravidin plate, OD450 nm
T3 peptide: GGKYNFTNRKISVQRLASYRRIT
Protocol: as §1, with “Plates were subsequently washed 4 times with washing buffer and incubated with anti-human IgG secondary antibody conjugated to horseradish peroxidase (HRP) (GE Healthcare, NA933) at a 1:5000 dilution in PBS+0.05% Tween-20. Finally, after washing 4 times with washing buffer, plates were developed by the addition of 50 μl per well of the HRP substrate TMB (ThermoFisher, 34021) for 9 min.” left out, “A positive control (broadly reactive plasma from donor CLM70) and a negative control (uninfected participant) samples were included in each experiment. The Area Under the Curve (AUC) was obtained from two independent experiments and plotted with GraphPad Prism.” left out

[4] = target: T4, CCL7 N-loop peptide (human, biotin-Ahx at the N-terminus; amidated at the C-terminus); assay: ELISA, biotinylated CCL7 N-loop peptide on neutravidin plate, OD450 nm
T4 peptide: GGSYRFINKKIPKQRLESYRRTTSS
Protocol: as §1, with “Plates were subsequently washed 4 times with washing buffer and incubated with anti-human IgG secondary antibody conjugated to horseradish peroxidase (HRP) (GE Healthcare, NA933) at a 1:5000 dilution in PBS+0.05% Tween-20. Finally, after washing 4 times with washing buffer, plates were developed by the addition of 50 μl per well of the HRP substrate TMB (ThermoFisher, 34021) for 9 min.” left out, “A positive control (broadly reactive plasma from donor CLM70) and a negative control (uninfected participant) samples were included in each experiment. The Area Under the Curve (AUC) was obtained from two independent experiments and plotted with GraphPad Prism.” left out

[5] = target: T5, CCL11 N-loop peptide (human, biotin-Ahx at the N-terminus; amidated at the C-terminus); assay: ELISA, biotinylated CCL11 N-loop peptide on neutravidin plate, OD450 nm
T5 peptide: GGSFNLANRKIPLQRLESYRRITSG
Protocol: as §1, with “Plates were subsequently washed 4 times with washing buffer and incubated with anti-human IgG secondary antibody conjugated to horseradish peroxidase (HRP) (GE Healthcare, NA933) at a 1:5000 dilution in PBS+0.05% Tween-20. Finally, after washing 4 times with washing buffer, plates were developed by the addition of 50 μl per well of the HRP substrate TMB (ThermoFisher, 34021) for 9 min.” left out, “A positive control (broadly reactive plasma from donor CLM70) and a negative control (uninfected participant) samples were included in each experiment. The Area Under the Curve (AUC) was obtained from two independent experiments and plotted with GraphPad Prism.” left out

[6] = target: T6, CCL13 N-loop peptide (human, biotin-Ahx at the N-terminus; amidated at the C-terminus); assay: ELISA, biotinylated CCL13 N-loop peptide on neutravidin plate, OD450 nm
T6 peptide: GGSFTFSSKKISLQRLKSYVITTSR
Protocol: as §1, with “Plates were subsequently washed 4 times with washing buffer and incubated with anti-human IgG secondary antibody conjugated to horseradish peroxidase (HRP) (GE Healthcare, NA933) at a 1:5000 dilution in PBS+0.05% Tween-20. Finally, after washing 4 times with washing buffer, plates were developed by the addition of 50 μl per well of the HRP substrate TMB (ThermoFisher, 34021) for 9 min.” left out, “A positive control (broadly reactive plasma from donor CLM70) and a negative control (uninfected participant) samples were included in each experiment. The Area Under the Curve (AUC) was obtained from two independent experiments and plotted with GraphPad Prism.” left out

[7] = target: T7, CCL8 N-loop peptide (human, biotin-Ahx at the N-terminus; amidated at the C-terminus); assay: ELISA, biotinylated CCL8 N-loop peptide on neutravidin plate, anti-human IgG-HRP, OD450 nm
T7 construct: Synthetic peptide (GenScript), captured on Neutravidin-coated ELISA plates
T7 peptide: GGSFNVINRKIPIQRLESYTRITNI
Protocol: as §1

[8] = target: SARS-CoV-2 Spike (S) protein (SARS-CoV-2, UniProt P0DTC2 14-1208); assay: ELISA on coated Spike protein (FIG. 2E)
Protocol: Plates were washed 4 times with washing buffer (PBS+0.05% Tween-20 [Sigma-Aldrich]) and incubated with 50 μl per well of a 50 nM biotinylated peptide solution in PBS for 1 h at room temperature. After washing 4 times with washing buffer, plates were incubated with 200 μl per well of blocking buffer (PBS+2% BSA+0.05% Tween-20) for 2 h at room temperature. Plates were then washed 4 times with washing buffer, and serial dilutions of monoclonal antibodies or plasma were added in PBS +0.05% Tween-20 and incubated for 1 h at room temperature. […] Monoclonal antibodies were tested at 5 μg/ml starting concentration followed by 11 threefold serial dilutions. Plates were subsequently washed 4 times with washing buffer and incubated with anti-human IgG secondary antibody conjugated to horseradish peroxidase (HRP) (GE Healthcare, NA933) at a 1:5000 dilution in PBS+0.05% Tween-20. […] The developing reaction was stopped with 50 μl per well of a 1 M H₂SO₄ solution, and absorbance was measured at 450 nm with an ELISA microplate reader (BioTek) with Gen5 software. […] The Area Under the Curve (AUC) was obtained from two independent experiments and plotted with GraphPad Prism.

[9] = target: T6, CCL13 N-loop peptide; assay: ELISA on biotinylated N-loop peptide (FIG. 2D)
Protocol: as §1

[10] = target: T3, CCL2 N-loop peptide; assay: ELISA on biotinylated N-loop peptide (FIG. 2D)
Protocol: as §1

[11] = target: T4, CCL7 N-loop peptide; assay: ELISA on biotinylated N-loop peptide (FIG. 2D)
Protocol: as §1

[12] = target: T5, CCL11 N-loop peptide; assay: ELISA on biotinylated N-loop peptide (FIG. 2D)
Protocol: as §1

[13] = target: T8, CCL20 N-loop peptide (human, biotin-Ahx at the N-terminus; amidated at the C-terminus); assay: ELISA, biotinylated CCL20 N-loop peptide on neutravidin plate, anti-human IgG-HRP, OD450 nm
T8 construct: Synthetic peptide, captured on Neutravidin-coated ELISA plates
T8 peptide: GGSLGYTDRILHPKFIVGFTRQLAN
Protocol: as §1, with “Plates were subsequently washed 4 times with washing buffer and incubated with anti-human IgG secondary antibody conjugated to horseradish peroxidase (HRP) (GE Healthcare, NA933) at a 1:5000 dilution in PBS+0.05% Tween-20. Finally, after washing 4 times with washing buffer, plates were developed by the addition of 50 μl per well of the HRP substrate TMB (ThermoFisher, 34021) for 9 min.” left out, “A positive control (broadly reactive plasma from donor CLM70) and a negative control (uninfected participant) samples were included in each experiment. The Area Under the Curve (AUC) was obtained from two independent experiments and plotted with GraphPad Prism.” left out

B1: aCXCL13.001 (antibody, human IgG1, V domains shown)
VH: QVQLVESGGGLVKPGGSLRLSCAASGFMFSDYYMSWIRQAPGKGLEWISYIGNSDASTFYADSVKGRFAISRDNAKNLLFLQMNSLRAEDTAVYYCARDGYSHSRGYSYGRKDAFDIWGRGTMVTVSS
VL: EIVLTQSPATLSLSPGERATLSCRASQSVSSYLAWYQQKPGQAPRLLIYAASQRATGIPARFSGTGSGTDFTLTISSLEPEDSAVYYCQQRGNWPGTFGQGTKVEIK
notes: also called anti-CXCL13 N-loop antibody
binding result [1]: binds

B2: aCXCL16.002 (antibody, human IgG1, V domains shown)
VH: EVQLVESGGGLSQPGWSLRLSCAASGLTVTRNYMSWVRQAPGKGLEWVSTLWTDGQKFYADSVKGRFTVSRDSYTNTLNLEMSGLRAEDTAVYFCTRDKVVPVRITPDYHYYGMDVWGQGTTVTVSS
VL: DIQLTQSPSFLSASVGDRVTITCRASQGVRRYLAWYQQKPGKAPKFLIYGASSLHTGVPSRFSGGGSDTEFTLTISNLQTEDFATYYCQQLDTYPLTFGGGTKVEIK
notes: also called anti-CXCL16 N-loop antibody
binding result [2]: binds

B3: aCXCL13.003 (antibody, V domains shown)
VH: QVQLQEWGAGLLKPSETLSLTCAVYGGSFSGYYWSWIRQPPGKGLEWIGEINHSGSTNYNPSLKSRVTISVDTSKNQFSLKLSSVTAADTAVYYCARAGRSYGDYGAFDIWGQGTMVTVSS
VL: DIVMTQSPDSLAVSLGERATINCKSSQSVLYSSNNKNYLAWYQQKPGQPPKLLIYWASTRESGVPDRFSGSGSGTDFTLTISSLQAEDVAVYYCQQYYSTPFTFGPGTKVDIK
notes: as for B1
binding result [1]: binds

B4: aCXCL16.001 (antibody, human IgG1, V domains shown)
VH: EVQLVESGGGLVKPGESLTLSCVASGYPFANAWMSWVRQAPGKGLEWVGRIKTKSEGETTDYAPLVRGRFTISRDDSKTTVFLQMNSLKTEDTGMYYCTTVFFWGRGTLVTVSS
VL: SYELTQPPSVSVSPGQTARITCSGDALSQQYLFWHQQRPGQAPKVVISKDTERPSGIPERFSGSISGTTGTLTISGVQTEDEADYYCHSTDISDSYWVFGGGTKLTVL
notes: as for B2
EC50 (read off the curve) [2]: ~100 ng/mL

B5: aCXCL16.003 (antibody, human IgG1, V domains shown)
VH: EVQLVQSGAEVKKPGESLKISCKGSGYSFTSYWIGWVRQMPGKGLEWMGIIYPGDSDTRYSPSFQGQVTISADKSISTAYLQWSSLKASDTAMYYCARLHGDLYYFDYWGQGTLVTVSS
VL: QSVLTQEASVSGTVGQKVTLSCTGNSNNVGSYAVGWYQQISHGAPKTVMFGNSLPSGIPDRFSGSKSGTTASLTISGLQPEDEADYYCSTWDYSLSAQVFGGGTKLTVL
notes: as for B2
EC50 (read off the curve) [2]: ~200 ng/mL

B6: aCXCL13.002 (antibody, V domains shown)
VH: EVQLVESGGGLVKPGGSLRLSCAASGFTFSSYSMNWVRQAPGKGLEWVSSISSSSSYIYYADSVKGRFTISRDNAKNSLYLQMNSLRAEDTAVYYCARDGIYDYAPVDYWGQGTLVTVSS
VL: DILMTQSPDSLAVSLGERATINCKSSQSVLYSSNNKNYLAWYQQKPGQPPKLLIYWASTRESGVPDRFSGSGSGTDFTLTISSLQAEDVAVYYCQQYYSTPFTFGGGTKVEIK
notes: as for B1
binding result [1]: binds

B7: aCCL8.001 (antibody, human IgG1, V domains shown)
VH: QVQLQESGPGLVKPAETLSLTCTVSGDSVSSESYFWGWIRQSPRKGLEWLGAVWYNGDTYYNPSVGGRVTISMDTSMNEISLRLSSVTAADTAVYFCATEHCIDEICSPASDSWGQGTLVTVSS
VL: DIVMTQSPDSLAVSLGERATINCKSSQSVFFSSNNENCLAWFQQKPGQPPKLLIHWASTRASGVPDRFSGSGSGTDFTLTISSLQAEDVAVYYCHQYLKAPRTFGQGTKVEIK
notes: kappa (VK4-1); also called VH4-39/VK4-1 antibody; anti-CCL8 antibody
binding result [3]: no binding (tested: 5000 ng/ml) | binding result [4]: no binding (tested: 5000 ng/ml) | binding result [5]: no binding (tested: 5000 ng/ml) | binding result [6]: no binding (tested: 5000 ng/ml) | EC50 (read off the curve) [7]: ~10 ng/mL

B8: aCCL8.004 (antibody, human IgG1, V domains shown)
VH: QVQLQESGPGLVKPAETLSLTCIVSGDSVSSPSYFWGWIRQPPGKGLEWIGATWFNGDTYYNPSLQSRVSISMDMSLNRIYLSLNSVTAADTAVYFCATEHCFDEICSPASDSWGQGTLVTVSS
VL: B7 VL with N22S, K24M, H55Y, H95Q
notes: also called VH4-39/VK4-1 antibody; anti-CCL8 antibody
binding result [8]: no binding | binding result [9]: no binding (tested: 5 µg/ml starting concentration) | binding result [10]: no binding (tested: 5 µg/ml starting concentration) | binding result [11]: no binding (tested: 5 µg/ml starting concentration) | binding result [12]: no binding (tested: 5 µg/ml starting concentration) | EC50 (read off the curve) [7]: ~10 ng/mL

B9: aCCL8.003 (antibody, human IgG1, V domains shown)
VH: QLQLQESGPGLVKPSETLSLTCTVSGDSVSSSFYFWGWVRQPPGKGLEWIGSIYYTGDTYYKPSLKSRVTISMNTSKNQFSLRLSSVTAADTAVYYCATEFCTSGICHPASDSWGQGTLVTVSS
VL: B7 VL with F30L, F31L, S33A, E36K, H55Y, A61E, V91I, H95Q, L98Y
notes: as for B8
binding result [8]: no binding | binding result [9]: no binding (tested: 5 µg/ml starting concentration) | binding result [10]: no binding (tested: 5 µg/ml starting concentration) | binding result [11]: no binding (tested: 5 µg/ml starting concentration) | binding result [12]: no binding (tested: 5 µg/ml starting concentration) | EC50 (read off the curve) [7]: ~10 ng/mL

B10: aCCL8.005 (antibody, human IgG1, V domains shown)
VH: B9 VH with S52G, I53T, Y61H, K62N, V69L, N74D, T103I, S104N, H108R
VL: B7 VL with F30L, F31L, E36K, K45R, H55Y, A61E, V91I, H95Q, L98Y
notes: as for B8
binding result [3]: no binding (tested: 5000 ng/ml) | binding result [4]: no binding (tested: 5000 ng/ml) | binding result [5]: no binding (tested: 5000 ng/ml) | binding result [6]: no binding (tested: 5000 ng/ml) | EC50 (read off the curve) [7]: ~10 ng/mL

B11: aCCL20.001 (antibody, V domains shown)
VH: QVQLVQSGAEVKKPGASVKISCKASGYTFTNHYMHWVRQAPGVGLEWMGIVNPSGGNTSYARNFQGRIIMTRDMSTRTIYMELGSLRSEDTAVYYCARDGSHYDDDGGYYGDAFDIWGQGTMVTVSS
VL: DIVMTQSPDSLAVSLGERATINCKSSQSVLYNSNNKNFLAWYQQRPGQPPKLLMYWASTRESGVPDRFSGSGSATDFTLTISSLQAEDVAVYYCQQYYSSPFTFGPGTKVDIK
notes: also called anti-CCL20 N-loop antibody
EC50 (read off the curve) [13]: ~40 ng/mL
